For data set [1], the target named is eIF3 complex (detected via eIF3b) (Homo sapiens) (UniProt Q14152+P55884+Q99613+O15371+P60228+O00303+O75821+O15372+Q13347+O75822+Q9UBQ5+Q9Y262+Q7L2H7). Nature of the data set: pulldown. The following applies: RIP-chip co-IP with anti-eIF3b, 4 C.
In a further data set the target is T1, LIN28A (UniProt Q9H9Z2).
T1 sequence: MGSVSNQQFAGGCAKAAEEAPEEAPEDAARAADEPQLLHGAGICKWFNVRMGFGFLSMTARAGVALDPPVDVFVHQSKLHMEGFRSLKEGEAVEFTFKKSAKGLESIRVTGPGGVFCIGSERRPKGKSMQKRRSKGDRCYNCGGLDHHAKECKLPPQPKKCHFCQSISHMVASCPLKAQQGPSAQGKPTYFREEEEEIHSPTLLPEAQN
Nature of the data set: pulldown. The following applies: RIP-chip microarray, TALON beads, 4 C.

Substance “HIV_2014_Siegfried_nucs_1_753_2_Multi (HIV-1 gag IRES)” came in with a binding signal (top % (rank 568)) in data set [1] of 6.58.

Take “HIV_2014_Siegfried_nucs_1_753_9 (HIV-1 gag IRES)”: the binding signal (top % (rank 17)) in data set [1] came out at 0.2.

In the data set with LIN28A, hsa-mir-532 had a binding signal (Cy5 intensity (rank 10)) of 7.39.

In the data set with LIN28A, pre-hsa-mir-940 registered a binding signal (Cy5 intensity (rank 6)) of 7.5.
